Assay results published in PMC8809517, “Cofactor-independent RNA editing by a synthetic S-type PPR protein”.
Substitutions are numbered along the chain they refer to.

Columns and labels:
Assay in all cases: high-throughput RNA pulldown from lysate on Ni-NTA beads; HRP: 50 mM Tris pH 8, 150 mM NaCl, 1 mM beta-mercaptoethanol, 50 ug/ml BSA, 3 ug/ml yeast RNA, 0.5% heparin; ITC and FP: Tris pH 8, 200 mM KCl, 5% glycerol; MST: 50 mM Tris pH 8, 200 mM NaCl, 1 mM DTT, BSA, heparin, 0.05% Tween 20
Conditions in all cases: tags: N-terminal His-eGFP
[1] = biological target: T1, GFP-9S library array, motif 4 ND N98V;D124M (synthetic construct, N98V;D124M)
T1 chain: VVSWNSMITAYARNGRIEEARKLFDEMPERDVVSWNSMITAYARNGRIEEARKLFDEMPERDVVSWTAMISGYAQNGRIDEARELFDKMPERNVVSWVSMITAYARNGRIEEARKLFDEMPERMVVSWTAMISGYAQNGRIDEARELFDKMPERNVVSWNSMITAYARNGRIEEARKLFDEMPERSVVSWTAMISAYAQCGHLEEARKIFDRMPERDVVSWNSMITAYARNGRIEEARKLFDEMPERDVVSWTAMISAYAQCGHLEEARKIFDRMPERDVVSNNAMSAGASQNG

[2] = biological target: T2, GFP-9S library array, motif 4 ND N98Y;D124P (synthetic construct, N98Y;D124P)
T2 chain: T1 chain with V98Y, M124P

[3] = biological target: T3, GFP-9S library array, motif 4 ND D124S (synthetic construct, D124S)
T3 chain: T1 chain with V98N, M124S

[4] = biological target: T4, GFP-9S library array, motif 4 ND N98F;D124K (synthetic construct, N98F;D124K)
T4 chain: T1 chain with V98F, M124K

[5] = biological target: T5, GFP-9S library array, motif 4 ND N98T;D124F (synthetic construct, N98T;D124F)
T5 chain: T1 chain with V98T, M124F

Binder | Kd ([1]; label: 5' IRDye 800CW) | Kd ([2]; label: 5' IRDye 800CW) | Kd ([3]; label: 5' IRDye 800CW) | Kd ([4]; label: 5' IRDye 800CW) | Kd ([5]; label: 5' IRDye 800CW) | Kd ([1]; label: 5' Cy5) | Kd ([2]; label: 5' Cy5) | Kd ([3]; label: 5' Cy5) | Kd ([4]; label: 5' Cy5) | Kd ([5]; label: 5' Cy5)
AUUAUACGUGA (ssRNA) [IR-rpoA-U] | 294 nM | 160 nM | 5.07 nM | 667 nM | 637 nM |  |  |  |  | 
AUUAGACGUGA (ssRNA) [Cy5-rpoA-G] |  |  |  |  |  | 155 nM | 110 nM | 522 nM | 63.6 nM | 160 nM
AUUACACGUGA (ssRNA) [Cy5-rpoA] |  |  |  |  |  | 148 nM | 106 nM | 2.01 nM | 160 nM | 241 nM
AUUAAACGUGA (ssRNA) [IR-rpoA-A] | 431 nM | 219 nM | 162 nM | 121 nM | 173 nM |  |  |  |  | 
